# PMC13541614 (Nature Methods, 2026)
# B1: AZD3152 (anti-SARS-CoV-2 RBD antibody), IgG (antibody, V domains shown)
# VH: EVQLVESGGGLVQPGRSLRLSCAASGFPFDDYAIHWVRLAPGKGLEWVSSISWDSGSIGYADSVKGRFTISRDNAKNSLYLQMNSLRAEDTALYYCAKGAFPGYSSGWYYGLEVWGQGTTVTVSS
# VL: QSVVTQPPSASGSLGQSVTISCTGTSSDVGGYNYVSWYQQHPGKAPKLMIFEVSKRPSGVPDRFSGSKSGNTASLTVSGLQAEDEADYYCSSYAGNKGVFGGGTKLTVL
# notes: also called control antibody; source: Expi293F, transfected, purified (HiTrap MabSelect PrismA); copies: 2 + 2
# Biological target: H5N1 influenza hemagglutinin (HA) of A/Vietnam/1203/2004, native (wild type) (Influenza A virus A/Vietnam/1203/2004 …, UniProt Q5EP31, strain)
# Assay: BLI
# Settings: both partners purified
binder,measurement,value
B1,binding result,no binding (tested: 100 nM)
